Results published in US20210371863, “HIGH EFFICIENCY APTAMER COMPLEX COMPRISING BRANCHED DNA AND APTAMER, AND USE THEREOF” (POSTECH ACADEMY-INDUSTRY FOUNDATION, published 2021).

Biological target: VEGF (hVEGF) (Homo sapiens, UniProt P15692-4 P15692-4:27-191)
Experiment: ELISA; remarkable capture efficiency after 4 h at room temperature, PD-10 column filtration; but p70 (FIG. 9) reports OA captured little hVEGF independent of serum incubation time
Conditions: quantified with hVEGF ELISA kit (Komabiotech); chain copies: 2; hairpin
Experimental: To confirm the hVEGF capture ability of OA, AA, and CA, each prepared sample was mixed with hVEGF solution for 4 hours at room temperature, and the mixed solution was filtered through a PD-10 column (Sephadex G-25, GE Healthcare, Sweden). The amount of non-purified hVEGF was measured by the hVEGF enzyme-linked immunosorbent assay kit (ELISA kit, Komabiotech) according to the manufacturer's guidelines (absorbance measurement at 490 nm by VICTOR3 V™ (Multilabel Counter, Perkin Elmer, Wellesley, Mass., USA)). The hVEGF capture ability of other samples such as OSc, ASc, and CSc was measured in the same way, and the results are shown in FIG. 10.

Chain of VEGF (hVEGF) (P15692 other isoform, or with tags, fused parts or gaps): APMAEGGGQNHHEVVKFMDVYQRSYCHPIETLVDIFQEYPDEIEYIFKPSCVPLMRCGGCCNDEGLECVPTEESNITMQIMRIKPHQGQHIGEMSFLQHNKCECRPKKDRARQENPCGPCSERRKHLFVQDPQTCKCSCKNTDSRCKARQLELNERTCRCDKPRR

B1: OA (oligomeric hVEGF aptamer, Y_Vapt) (ssDNA)
DNA: AGCTTCAGGCGAGGAGCCCACCCCGTCTTCCAGACAAGAGTGCAGGGGTGGCGAGGAGCGGACA
binding result: binds
